# Laboratory results: US20240287204A1 (published 2024)
# B1: MTK-22 (antibody, human IgG1, V domains shown)
# VH: QVQLQQPGADLVEPGASVKLSCKASGYTFTSYWMHWVKQRPGQGLEWIGEIDPSDSSSNYNQKFKGKATLTVDKSSSTAYMHLNSLTSEDSAVYYCARRYYYGSLYFDNWGQGTTLTVSS
# VL: DVVMTQSHKFMSTSVGDRVSITCKASQDVGTAIAWYQQKPGQSPKLLIYWASTRHTGVPDRFTGSRSGTVFTLTISNVQSEDLADYFCQQYTSYPLTFGSGTKLEIK
# Target: T1, human MerTK on cells (human, UniProt Q12866 21-999)
# T1 sequence: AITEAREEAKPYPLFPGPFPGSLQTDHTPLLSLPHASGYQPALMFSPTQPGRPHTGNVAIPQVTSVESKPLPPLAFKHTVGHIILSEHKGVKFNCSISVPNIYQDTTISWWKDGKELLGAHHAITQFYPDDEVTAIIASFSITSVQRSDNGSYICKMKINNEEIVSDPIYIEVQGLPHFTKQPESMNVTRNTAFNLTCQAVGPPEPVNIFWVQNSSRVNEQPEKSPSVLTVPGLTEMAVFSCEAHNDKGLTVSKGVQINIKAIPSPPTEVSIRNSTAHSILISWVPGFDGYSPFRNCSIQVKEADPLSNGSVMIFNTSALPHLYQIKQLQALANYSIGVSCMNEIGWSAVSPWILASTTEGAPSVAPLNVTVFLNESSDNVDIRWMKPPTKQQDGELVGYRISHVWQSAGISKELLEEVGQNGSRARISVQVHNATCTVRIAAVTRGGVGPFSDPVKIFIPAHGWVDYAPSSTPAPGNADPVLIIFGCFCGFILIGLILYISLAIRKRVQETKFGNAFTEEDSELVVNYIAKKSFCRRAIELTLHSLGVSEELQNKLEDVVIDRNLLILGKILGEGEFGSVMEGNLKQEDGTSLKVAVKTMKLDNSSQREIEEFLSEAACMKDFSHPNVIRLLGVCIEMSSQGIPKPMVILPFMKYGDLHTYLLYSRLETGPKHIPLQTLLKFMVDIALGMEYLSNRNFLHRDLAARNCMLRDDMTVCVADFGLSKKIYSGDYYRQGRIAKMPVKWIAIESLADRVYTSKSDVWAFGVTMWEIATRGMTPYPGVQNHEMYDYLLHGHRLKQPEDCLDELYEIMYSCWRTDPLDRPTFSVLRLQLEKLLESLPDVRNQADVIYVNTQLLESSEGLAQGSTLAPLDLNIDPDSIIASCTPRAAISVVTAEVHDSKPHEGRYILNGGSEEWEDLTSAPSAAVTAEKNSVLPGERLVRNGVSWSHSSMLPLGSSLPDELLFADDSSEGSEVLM
# Assay: cell-based or functional assay
binder,measurement,value
B1,IC50 of blocking of Gas6-mediated pAKT activity in human M2c macrophages (HTRF),0.531 nM
